Key:
HLA-A*24:02 = test: IEDB peptide-MHC binding, purified MHC/direct/fluorescence; filed as Kd, often an IC50 or EC50 that approximates it; ≥ and ≤ were set here for values at or beyond the usual limits of such assays
HLA-B*07:02 [1] = test: as above
HLA-B*15:01 [2] = test: as above
HLA-B*51:01 [3] = test: as above
HLA-A*02:01 [4] = test: IEDB peptide-MHC binding, purified MHC/competitive/radioactivity; ≥ and ≤ were set here for values at or beyond the usual limits of such assays
HLA-A*31:01 [5] = test: IEDB peptide-MHC binding, purified MHC/direct/fluorescence; filed as Kd, often an IC50 or EC50 that approximates it; ≥ and ≤ were set here for values at or beyond the usual limits of such assays; conditions: source organism: Homo sapiens
HLA-B*27:05 = test: as above; conditions: source organism: Homo sapiens
HLA-C*14:02 = test: as above
HLA-A*11:01 [6] = test: IEDB peptide-MHC binding, purified MHC/competitive/fluorescence; filed as Kd, often an IC50 or EC50 that approximates it; ≥ and ≤ were set here for values at or beyond the usual limits of such assays; conditions: source organism: Influenza A virus (A/goose/Hong Kong/739.2/2002(H5N1))
HLA-C*06:02 = test: IEDB peptide-MHC binding, purified MHC/direct/fluorescence; filed as Kd, often an IC50 or EC50 that approximates it; ≥ and ≤ were set here for values at or beyond the usual limits of such assays
HLA-B*39:01 = test: IEDB peptide-MHC binding, purified MHC/competitive/fluorescence; filed as Kd, often an IC50 or EC50 that approximates it; ≥ and ≤ were set here for values at or beyond the usual limits of such assays
HLA-B*40:01 = test: IEDB peptide-MHC binding, purified MHC/direct/fluorescence; filed as Kd, often an IC50 or EC50 that approximates it; ≥ and ≤ were set here for values at or beyond the usual limits of such assays; conditions: source organism: Mycobacterium tuberculosis
HLA-A*02:01 [7] = test: as above; conditions: source organism: Camelpox virus M-96
HLA-A*69:01 [8] = test: as above; conditions: source organism: Camelpox virus M-96
HLA-A*02:03 = test: as above; conditions: source organism: Orthohantavirus andesense
HLA-A*02:11 = test: as above; conditions: source organism: Orthohantavirus andesense
HLA-A*02:12 [9] = test: as above; conditions: source organism: Orthohantavirus andesense
HLA-A*02:16 = test: as above; conditions: source organism: Orthohantavirus andesense
HLA-A*02:19 = test: as above; conditions: source organism: Orthohantavirus andesense
HLA-A*03:01 [10] = test: as above; conditions: source organism: Orthohantavirus andesense
HLA-A*24:03 = test: as above; conditions: source organism: Orthohantavirus andesense
HLA-A*29:02 = test: as above; conditions: source organism: Orthohantavirus andesense
HLA-A*68:02 = test: as above; conditions: source organism: Orthohantavirus andesense
HLA-A*02:01 [11] = test: IEDB peptide-MHC binding, purified MHC/competitive/fluorescence; filed as Kd, often an IC50 or EC50 that approximates it; ≥ and ≤ were set here for values at or beyond the usual limits of such assays
HLA-A*26:01 [12] = test: as above; conditions: source organism: Orthohantavirus andesense
HLA-A*69:01 [13] = test: as above; conditions: source organism: Orthohantavirus andesense
HLA-B*15:01 [14] = test: as above; conditions: source organism: Orthohantavirus andesense
HLA-B*18:01 = test: as above; conditions: source organism: Orthohantavirus andesense
HLA-B*27:03 = test: as above; conditions: source organism: Orthohantavirus andesense
HLA-B*46:01 = test: as above; conditions: source organism: Orthohantavirus andesense
HLA-B*58:01 = test: as above; conditions: source organism: Orthohantavirus andesense
HLA-A*03:01 [15] = test: IEDB peptide-MHC binding, purified MHC/competitive/radioactivity; filed as Kd, often an IC50 or EC50 that approximates it; ≥ and ≤ were set here for values at or beyond the usual limits of such assays; conditions: source organism: Vaccinia virus WR
HLA-A*11:01 [16] = test: as above; conditions: source organism: Vaccinia virus WR
HLA-A*31:01 [17] = test: as above; conditions: source organism: Vaccinia virus WR
HLA-A*33:01 = test: as above; conditions: source organism: Vaccinia virus WR
HLA-A*68:01 = test: as above; conditions: source organism: Vaccinia virus WR
HLA-B*07:02 [18] = test: as above; conditions: source organism: Vaccinia virus WR
HLA-B*35:01 [19] = test: as above; conditions: source organism: Vaccinia virus WR
HLA-B*51:01 [20] = test: as above; conditions: source organism: Vaccinia virus WR
HLA-B*53:01 = test: as above; conditions: source organism: Vaccinia virus WR
HLA-B*54:01 = test: as above; conditions: source organism: Vaccinia virus WR
HLA-A*02:12 [21] = test: IEDB peptide-MHC binding, purified MHC/competitive/fluorescence; filed as Kd, often an IC50 or EC50 that approximates it; ≥ and ≤ were set here for values at or beyond the usual limits of such assays; conditions: source organism: Entamoeba histolytica HM-1:IMSS
HLA-A*26:01 [22] = test: IEDB peptide-MHC binding, purified MHC/direct/fluorescence; filed as Kd, often an IC50 or EC50 that approximates it; ≥ and ≤ were set here for values at or beyond the usual limits of such assays; conditions: source organism: Mammarenavirus juninense
HLA-C*12:03 = test: as above; conditions: source organism: Mammarenavirus machupoense
HLA-B*35:01 [23] = test: IEDB peptide-MHC binding, purified MHC/competitive/fluorescence; filed as Kd, often an IC50 or EC50 that approximates it; ≥ and ≤ were set here for values at or beyond the usual limits of such assays; conditions: source organism: Mammarenavirus machupoense
[24] = source organism: Burkholderia mallei
[25] = source organism: Mycobacterium tuberculosis H37Ra
[26] = source organism: Bacillus anthracis str. A0488
[27] = source organism: Yersinia pestis
[28] = source organism: Yersinia pestis CA88-4125
[29] = source organism: Orthohantavirus andesense
[30] = source organism: Vaccinia virus GLV-1h68

Work on KFITHPFLW yielded a Kd (HLA-A*24:02; source organism: Entamoeba histolytica HM-1:IMSS) of no more than 1 nM.
With NPVDGSIWY the Kd (HLA-B*07:02 [1]; [24]) was no less than 20000 nM, the Kd (HLA-B*15:01 [2]; source organism: Burkholderia mallei ATCC 23344) was no less than 20000 nM and the Kd (HLA-B*51:01 [3]; [24]) was no less than 20000 nM.
Sequence GLIDIAPHQI has an IC50 (HLA-A*02:01 [4]; [25]) of 49 nM.
Sequence IYPEWYFLW has a Kd (HLA-A*24:02; source organism: Campylobacter jejuni subsp. jejuni 81116) of no more than 1 nM.
With ALDGGNKHFL the IC50 (HLA-A*02:01 [4]; source organism: Homo sapiens) was 41.7 nM.
In the case of RYFSVTRPL, the Kd (HLA-A*31:01 [5]) is reported as 512 nM, the Kd (HLA-B*07:02 [1]; source organism: Homo sapiens) is reported as no less than 27600 nM and the Kd (HLA-B*27:05) is reported as 10600 nM. For the same sequence, the Kd (HLA-C*14:02; source organism: Anopheles gambiae str. PEST) was no more than 1 nM.
ASYKIFRIEK showed a Kd (HLA-A*11:01 [6]) of 0.9 nM.
Work on LRHSTAHLL yielded a Kd (HLA-C*06:02; [26]) of 13 nM and a Kd (HLA-B*39:01; [26]) of 71.3 nM.
In the case of AEAASATPL, the Kd (HLA-B*40:01) is reported as 21.9 nM and the Kd (HLA-C*14:02; [25]) is reported as no less than 20000 nM.
For YLMPYSVYI, the Kd (HLA-A*02:01 [7]) was no more than 1 nM, the Kd (HLA-A*69:01 [8]) was no more than 1 nM and the Kd (HLA-C*06:02; source organism: Variola virus) was 7 nM.
LNTSAGFPYV showed an IC50 (HLA-A*02:01 [4]; source organism: Rhinovirus C) of 500 nM.
For VLSEWLPVT, the IC50 (HLA-A*02:01 [4]; source organism: Rift Valley fever virus) was 15 nM.
GLLGSPVRA showed an IC50 (HLA-A*02:01 [4]; source organism: Homo sapiens) of 219 nM.
With TPFEVETRL the Kd (HLA-B*07:02 [1]; [27]) was 836 nM, the Kd (HLA-B*15:01 [2]; [28]) was no less than 20000 nM and the Kd (HLA-B*51:01 [3]; [27]) was no less than 20000 nM.
Sequence NALEKALRW has a Kd (HLA-A*02:03) of no less than 20000 nM, a Kd (HLA-A*02:11) of no less than 20000 nM and a Kd (HLA-A*02:12 [9]) of no less than 20000 nM. The Kd (HLA-A*02:16) was no less than 20000 nM, the Kd (HLA-A*02:19) was no less than 20000 nM and the Kd (HLA-A*03:01 [10]) was no less than 20000 nM. It also gave a Kd (HLA-A*24:03) of no less than 20000 nM, a Kd (HLA-A*29:02) of no less than 20000 nM and a Kd (HLA-A*68:02) of no less than 20000 nM. For the same sequence, the Kd (HLA-A*02:01 [11]; [29]) was no less than 20000 nM, the Kd (HLA-A*26:01 [12]) was no less than 20000 nM and the Kd (HLA-A*69:01 [13]) was no less than 20000 nM. For the same sequence, the Kd (HLA-B*15:01 [14]) was no less than 20000 nM, the Kd (HLA-B*18:01) was no less than 20000 nM and the Kd (HLA-B*27:03) was no less than 20000 nM. For the same sequence, the Kd (HLA-B*39:01; [29]) was no less than 20000 nM, the Kd (HLA-B*46:01) was no less than 20000 nM and the Kd (HLA-B*58:01) was 25.5 nM.
For GPAEARKVC, the Kd (HLA-B*51:01 [3]; source organism: Yellow fever virus) was no less than 20000 nM.
LMYDIINSV was tested, and the Kd (HLA-C*06:02; [30]) was 4440 nM, the Kd (HLA-A*02:01 [11]; [30]) was 0.6 nM and the Kd (HLA-A*03:01 [15]) was no less than 35100 nM. It also gave a Kd (HLA-A*11:01 [16]) of 1300 nM, a Kd (HLA-A*31:01 [17]) of 4520 nM and a Kd (HLA-A*33:01) of no less than 20300 nM. For the same sequence, the Kd (HLA-A*68:01) was no less than 77700 nM, the Kd (HLA-B*07:02 [18]) was no less than 77500 nM and the Kd (HLA-B*35:01 [19]) was no less than 77400 nM. It also gave a Kd (HLA-B*51:01 [20]) of no less than 54500 nM, a Kd (HLA-B*53:01) of no less than 78200 nM and a Kd (HLA-B*54:01) of 258 nM.
Sequence NQNDNEETV has a Kd (HLA-A*02:12 [21]) of 40.4 nM.
In the case of TFAWASFLW, the Kd (HLA-A*24:02; [28]) is reported as 3 nM.
Work on DAMPGVLSY yielded a Kd (HLA-A*26:01 [22]) of 2.1 nM, a Kd (HLA-C*12:03) of no less than 20000 nM and a Kd (HLA-B*35:01 [23]) of 0.5 nM.

From the Immune Epitope Database (IEDB)
